B1: TRIM63 (parent)
chain: QEKKLSFIEALIQQYQEQLDKSTK
B2: MFF (parent)
chain: DDLTVVDAASLRRQIIKLNRRLQL

Variants of: B1
Test: protein stability index of a GFP-peptide fusion (GPS, HEK-293T) (PSI 1-6); higher = more stable
Details: c terminus: a fixed tail appended
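Note: lentivirally expressed fusions sorted by FACS into six bins by GFP to DsRed ratio, PSI derived from sequencing read proportions per bin multiplied by bin number.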

Protein stability index of substitutions, site by site:
T23: D 3.33; W 1.09; I 1.84; R 2.66; S 2.7; Y 2.26; N 2.31; L 1.51; P 2.24; G 2.77; M 1.92; C 2.72; V 2.67; A 2.75; H 2.53; K 2.49; E 2.57; Q 2.89
S22: T 2.75; R 1.98; G 2.26; V 2.45; M 2.65; I 2.74; K 2.52; N 2.89; W 1.92; E 3.21; F 3.09; D 3.1; Q 2.43; P 3.1; H 2.7
K24: I 1.95; A 2.25; W 1.67; C 2.99; N 2.79; E 3.51; R 1.84; L 2.47; F 1.71; V 2.31; G 2.71; M 2.32; S 2.61; P 3.33; Q 2.68; T 2.67; H 2.95; Y 1.36; D 3.66

Variants of: B2
Test: as above
Details: c terminus: a fixed tail appended

Protein stability index: each site, then its substitutions
D2: P 2.45; S 2.24; K 2.3; F 2.48; W 2.86; G 2.56; C 2.73; L 1.24; N 2.22; Y 2; M 2.09; A 2.37; H 2.02; R 1.82; Q 2.32; V 1.13; T 2.31; I 1.85; E 1.72
R13: M 2.54; N 2.21; F 1.69; T 1.85; L 2.56; P 2.56; Q 2.06; E 2.42; I 1.41; G 2.14; Y 1.7; H 1.95; C 2.22; A 2.88; V 2.55; K 2.17; S 2.39; D 2.27
I16: H 2.26; D 2.85; N 2.8; A 2.48; G 1.64; C 1.69; E 1.88; L 2.19; M 1.67; F 3.4
L3: D 2.58; P 2.48; E 2.56; F 2.73; A 2.59; M 3.06; C 2.33; H 2.73; S 2.57; N 2.09; I 1.8; R 2.58; T 2.2; W 1.48; G 2.58; V 2.8; Y 1.96; Q 2.45; K 2.34
A8: Q 2.38; L 2.58; V 1.9; W 2.17; N 2.63; G 3.13; H 1.95; Y 1.3; I 1.61; D 2.8; F 2.35; S 2.49; E 2.63; C 1.93; T 1.69; R 2.57; P 2.42; K 3.29; M 3.09
V5: M 2.05; S 2.5; F 1.72; C 1.72; R 1.7; Y 2.17; A 2.44; L 1.69; I 2.66; N 2.61; K 2.47; W 1.93; Q 2.26; D 2.37; T 2.69; H 2.69; P 2.42; E 2.38
V6: N 2.4; W 2.4; D 2.3; G 3.34; H 2.71; L 2.37; C 2.41; R 2.91; E 2.08; P 4.09; Q 1.9; F 2.29

Reference: the supplement of paper PMC10567573
